The target of test [1] is T1, HLA-A*01:01 (human).
T1 construct: MHC class I molecule expressed by the cells or tissue sample (endogenous or BAP-tagged), immunopurified before peptide elution
Briefly: MS validation of HLA class I-presented peptide; samples GBM, A375. The procedure:
(§1) Frozen cell pellets endogenously expressing MHC molecules (untagged) or biotin acceptor peptide (BAP)-tagged MHC molecules were lysed by pipetting and end-over-end rotation for twenty minutes using lysis buffer [20 mM Tris-Cl pH 8, 100 mM NaCl, 6 mM MgCl2, 1.5% (v/v) Triton X-100, 60 mM octyl B-D-glucopyranoside, 0.2 mM of 2-Iodoacetamide, 1 mM EDTA pH 8, 1 mM PMSF, 1× complete EDTA-free protease inhibitor cocktail (Roche)] plus benzonase nuclease for twenty minutes. Tissue samples were homogenized in lysis buffer plus benzonase nuclease. All lysates were cleared by centrifugation. Samples with untagged MHC molecules were subsequently incubated with GammaBind Plus Sepharose Beads (GE Healthcare) pre-charged with a pan-HLA A/B/C antibody (clone W6/32) overnight at 4 C with end-over-end rotation. BAP-tagged samples were biotinylated with 0.56 μM biotin, 1 mM ATP, and 1 μM BirA biotin ligase for 10 minutes, and subsequently incubated with High-Capacity NeutrAvidin Agarose resin for 30 minutes at 4° C. with end-over-end rotation. Following enrichment, beads were washed 2× with wash buffer A [20 mM Tris-Cl pH 8, 100 mM, NaCl, 60 mM octyl B-D-glucopyranoside, 0.2 mM of 2-Iodoacetamide, 1 mM EDTA pH 8] and wash buffer B [10 mM Tris-Cl pH 8] using a positive pressure manifold. […]

In test [2] the target is T2, HLA-C*07:02 (human).
T2 construct: MHC class I molecule expressed by the cells or tissue sample (endogenous or BAP-tagged), immunopurified before peptide elution
The experiment in a line: MS validation of HLA class I-presented peptide; sample human prostate. The procedure:
(§2) Frozen cell pellets endogenously expressing MHC molecules (untagged) or biotin acceptor peptide (BAP)-tagged MHC molecules were lysed by pipetting and end-over-end rotation for twenty minutes using lysis buffer [20 mM Tris-Cl pH 8, 100 mM NaCl, 6 mM MgCl2, 1.5% (v/v) Triton X-100, 60 mM octyl B-D-glucopyranoside, 0.2 mM of 2-Iodoacetamide, 1 mM EDTA pH 8, 1 mM PMSF, 1× complete EDTA-free protease inhibitor cocktail (Roche)] plus benzonase nuclease for twenty minutes. Tissue samples were homogenized in lysis buffer plus benzonase nuclease. All lysates were cleared by centrifugation. Samples with untagged MHC molecules were subsequently incubated with GammaBind Plus Sepharose Beads (GE Healthcare) pre-charged with a pan-HLA A/B/C antibody (clone W6/32) overnight at 4 C with end-over-end rotation. BAP-tagged samples were biotinylated with 0.56 μM biotin, 1 mM ATP, and 1 μM BirA biotin ligase for 10 minutes, and subsequently incubated with High-Capacity NeutrAvidin Agarose resin for 30 minutes at 4° C. with end-over-end rotation. Following enrichment, beads were washed 2× with wash buffer A [20 mM Tris-Cl pH 8, 100 mM, NaCl, 60 mM octyl B-D-glucopyranoside, 0.2 mM of 2-Iodoacetamide, 1 mM EDTA pH 8] and wash buffer B [10 mM Tris-Cl pH 8] using a positive pressure manifold. MHC molecules were eluted using 10% acetic acid and peptides were isolated using 10K molecular weight cut-off filtration following filter passivation with 1% bovine serum albumin (BSA). If required, samples were next reduced and alkylated using 5 mM Bond-Breaker TCEP solution at 60° C. for 30 min followed by 15 mM 2-Iodoacetamide for 30 min, protected from light. Samples were next acidified using 100% formic acid and desalted using 10 mg Sep-Pak tC18 μElution plates with peptide elutions at 15% acetonitrile and 50% acetonitrile, which were subsequently pooled. The volume of eluted peptides was reduced using vacuum centrifugation.

The next test deals with T3, HLA-C*06:02 (human).
T3 construct: MHC class I molecule expressed by the cells or tissue sample (endogenous or BAP-tagged), immunopurified before peptide elution
The description is as above. The protocol: as §2

Test [3] deals with T2, HLA-C*07:02. The experiment in a line: MS validation of HLA class I-presented peptide (second allele under Allele (MS)); sample human prostate. The protocol:
as §1

The target of test [4] is T1, HLA-A*01:01. The experiment in a line: MS validation of HLA class I-presented peptide; sample human prostate. The procedure:
as §2

Test [5] concerns the target T4, HLA-A*02:01 (human).
T4 construct: MHC class I molecule expressed by the cells or tissue sample (endogenous or BAP-tagged), immunopurified before peptide elution
Briefly: MS validation of HLA class I-presented peptide; samples CD165, HCC1500, CAMA1. The protocol:
as §1

The next test addresses T5, HLA-A*24:02 (human).
T5 construct: MHC class I molecule expressed by the cells or tissue sample (endogenous or BAP-tagged), immunopurified before peptide elution
Briefly: MS validation of HLA class I-presented peptide; sample human prostate. The protocol: as §2

A further test concerns the target T6, HLA-C*04:01 (human).
T6 construct: MHC class I molecule expressed by the cells or tissue sample (endogenous or BAP-tagged), immunopurified before peptide elution
Briefly: MS validation of HLA class I-presented peptide; samples B721, A375. The procedure: as §1

Test [6] deals with T7, HLA-C*07:01 (human).
T7 construct: MHC class I molecule expressed by the cells or tissue sample (endogenous or BAP-tagged), immunopurified before peptide elution
Briefly: MS validation of HLA class I-presented peptide; samples MDAPCa2b, human prostate, breast cancer. The procedure: as §1

In a further test the target is T8, HLA-B*07:02 (human).
T8 construct: MHC class I molecule expressed by the cells or tissue sample (endogenous or BAP-tagged), immunopurified before peptide elution
Briefly: MS validation of HLA class I-presented peptide (second allele under Allele (MS)); samples MDAPCa2b, human prostate, breast cancer. The procedure: as §1

The target of test [7] is T4, HLA-A*02:01. The experiment in a line: MS validation of HLA class I-presented peptide; samples CAMA1, HCC1500. The protocol:
as §1

Test [8] addresses T2, HLA-C*07:02. The experiment in a line: MS validation of HLA class I-presented peptide (second allele under Allele (MS)); samples MDAPCa2b, human prostate. The procedure: as §1
The target in test [9] is T7, HLA-C*07:01. Briefly: MS validation of HLA class I-presented peptide; samples MDAPCa2b, human prostate. The protocol: as §1

With EVDPASNTY, the binding result with HLA-A*01:01 [1] is “binds”.

For the molecule LRPGDDSTL (4002 is used here), in the test with HLA-C*07:02 [2], the binding result is “binds”.

In the case of IRNKSVILL, the binding result with HLA-C*06:02 and with HLA-C*07:02 [3] was “binds” in each case.

Turning to VFQVSHSF, the binding result with HLA-C*07:02 [2] is given as “binds”.

Take YSEKVTEFML: in the test with HLA-A*01:01 [4], the binding result is given as “binds”.

With NRPLLANDL, the binding result with HLA-C*06:02 and with HLA-C*07:02 [3] was “binds” each time.

As for LLSHGAVIEV, the binding result with HLA-A*02:01 [5] is reported as “binds”.

With LFHPEDTGQVF, the binding result with HLA-A*24:02 is on record as “binds”.

SVPNKALEL: the binding result with HLA-C*04:01 is reported as “binds”.

Regarding HPEYNRPLL, the binding result with HLA-C*07:01 [6] and with HLA-B*07:02 was “binds” each time.

With SLDQKLFQL, the binding result with HLA-A*02:01 [7] is reported as “binds”.

As for QRVPVSHSF, the binding result in the test with HLA-C*07:02 [8] and with HLA-C*07:01 [9] was “binds” each time.
